Substrate in data set [1]: O=c1ccn([C@@H]2O[C@H](CO[P@@](=O)(O)O[P@@](=O)(O)O[C@H]3O[C@H](CO)[C@@H](O)[C@H](O)[C@H]3O)[C@@H](O)[C@H]2O)c(=O)[nH]1
Description: purified protein. The class given is biochemical, Eucalyptus grandis. The note with it: NAD+ saturating (1 mM), 20 mM Tris-HCl pH 8.0, 2 mM MgCl2, 30 °C, panel letters in text and Figure 3 caption are swapped.

Substrate in data set [2]: NC(=O)c1ccc[n+]([C@@H]2O[C@H](COP(=O)(O)OP(=O)(O)OC[C@H]3O[C@@H](n4cnc5c(N)ncnc54)[C@H](O)[C@@H]3O)[C@@H](O)[C@H]2O)c1
In words: purified protein. The class given is biochemical, Eucalyptus grandis. As to conditions: UDP-glucose saturating (1 mM), 20 mM Tris-HCl pH 8.0, 2 mM MgCl2, 30 °C, panel letters in text and Figure 3 caption are swapped, varied: cofactor.

Consider one protein from article PMC3036151, “Cloning and endogenous expression of a Eucalyptus grandis UDP-glucose dehydrogenase cDNA” (Genetics and Molecular Biology, 2010).

B1: UDP-glucose dehydrogenase (UGDH), Poly-His-Tagged eucalyptus UDP-GDH, UDP-GlucDH (Eucalyptus grandis) (protein)
chain: MVKICCIGAGYVGGPTMAVIALKCPSVEVAVVDISVSRIQAWNSEQLPIYEPGLDAVVKQCRGKNLFFSTDVEKHVFEADIVFVSVNTPTKTRGLGAGKAADLTYWESAARMIADVSKSDKIVVEKSTVPVKTAEAIEKILTHNSKGIKFQILSNPEFLAEGTAIQDLFAPDRVLIGGRETPEGQKAIQTLKDVYAHWVPEDRILTTNLWSAELSKLAANAFLAQRISSVNAMSSLCEATGADVAQVSYAVGKDSRIGPKFLNASVGFGGSCFQKDILNLVYICECNGLPEVAEYWKQVIKINDYQKARFVNRVVSSMFNTVSNKKIAILGFAFKKDTGDTRETPAIDVCKGLLGDKARLSIYDPQVTEEQIQRDLTMNKFDWDHPVHLQPMSPTTVKQVSVVWDAYDAVKDAHGLCILTEWDEFKTLDYQRIYDNMQKPAYIFDGRNVVNVNKLREIGFIVYSIGKPLDPWLKDMPAVA
notes: full-length ORF (1443 bp, 480 residues, about 53 kDa) from cambial-region cDNA, N-terminal 6xHis tag (pDEST17) kept, E. coli BL21-AI; cDNA ends set by degenerate primers
For the protein B1, the Km (usually the concentration of substrate that gives half-maximal velocity) in data set [1] came to 60.7 ± 8.5 µM; in data set [2], 67.3 ± 17.9 µM.
